Experimental data as given in publication PMC6555819, “Comprehensive study of nuclear receptor DNA binding provides a revised framework for understanding receptor specificity”.

Legend:
[1] = molecular target: PPARg:RXRa (Homo sapiens, UniProt P37231;P19793 full;full); assay: no ligand; PBM; 180 nM : 90 nM RXRa; PBS pH 7.4, 2% milk, 0.02% Triton X-100, 1 mM DTT, BSA, 0.4 mg/ml salmon testes DNA; conditions: tags: His kept;His cleaved; copies: 1;1; label: surface-attached array probe
[2] = molecular target: RARb:RXRa (Homo sapiens, UniProt P10826;P19793 full;full); assay: no ligand; PBM; 270 nM : 90 nM RXRa; PBS pH 7.4, 2% milk, 0.02% Triton X-100, 1 mM DTT, BSA, 0.4 mg/ml salmon testes DNA; conditions: tags: His kept;His cleaved; copies: 1;1; label: surface-attached array probe
Chain of RARb:RXRa (P10826 whole entry, chain 1 of 2): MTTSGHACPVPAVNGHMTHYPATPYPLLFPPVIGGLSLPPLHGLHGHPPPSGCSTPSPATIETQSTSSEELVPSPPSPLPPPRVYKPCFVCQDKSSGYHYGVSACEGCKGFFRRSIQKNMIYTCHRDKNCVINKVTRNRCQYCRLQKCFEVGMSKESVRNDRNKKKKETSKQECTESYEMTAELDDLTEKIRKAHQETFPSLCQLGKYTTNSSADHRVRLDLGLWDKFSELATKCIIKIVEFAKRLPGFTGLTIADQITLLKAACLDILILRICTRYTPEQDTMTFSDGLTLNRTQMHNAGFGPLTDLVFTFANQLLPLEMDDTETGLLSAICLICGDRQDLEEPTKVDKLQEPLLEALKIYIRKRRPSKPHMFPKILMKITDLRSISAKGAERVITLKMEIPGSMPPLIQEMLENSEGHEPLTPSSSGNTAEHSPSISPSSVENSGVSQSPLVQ
Chain of RARb:RXRa (P19793 whole entry, chain 2 of 2): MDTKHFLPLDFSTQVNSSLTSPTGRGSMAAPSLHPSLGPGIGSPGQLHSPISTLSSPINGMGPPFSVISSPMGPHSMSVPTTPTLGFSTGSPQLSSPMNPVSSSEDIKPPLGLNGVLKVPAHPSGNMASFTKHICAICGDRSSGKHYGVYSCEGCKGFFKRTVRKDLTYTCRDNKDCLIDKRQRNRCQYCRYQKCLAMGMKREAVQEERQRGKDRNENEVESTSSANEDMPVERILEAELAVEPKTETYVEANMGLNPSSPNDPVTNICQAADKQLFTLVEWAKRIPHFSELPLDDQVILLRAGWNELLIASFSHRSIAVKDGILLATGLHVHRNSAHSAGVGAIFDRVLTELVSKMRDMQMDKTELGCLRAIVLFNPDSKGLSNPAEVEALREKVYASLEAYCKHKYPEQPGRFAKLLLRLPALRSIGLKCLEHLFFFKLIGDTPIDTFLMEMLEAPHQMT
Summary of the method: (§1)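 Binding z-scores take random background probes as their reference. They come from custom Agilent 4×180K protein-binding microarrays incubated 1 h with ligand-free nuclear receptor dimers, with antibodies against each partner (one per run) detecting binding. Scanned fluorescence was regression-normalized.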

[3] = molecular target: RXRa (Homo sapiens, UniProt P19793); assay: no ligand; PBM; 180 nM; PBS pH 7.4, 2% milk, 0.02% Triton X-100, 1 mM DTT, BSA, 0.4 mg/ml salmon testes DNA; conditions: tags: His cleaved; chain copies: 2; label: surface-attached array probe
Chain of RXRa (P19793 whole entry): as the sequence (P19793 whole entry, chain 2 of 2) above

[4] = molecular target: VDR:RXRa (Homo sapiens, UniProt P11473;P19793 full;full); assay: no ligand; PBM; 270 nM : 90 nM RXRa; PBS pH 7.4, 2% milk, 0.02% Triton X-100, 1 mM DTT, BSA, 0.4 mg/ml salmon testes DNA; conditions: tags: His kept;His cleaved; copies: 1;1; label: surface-attached array probe
Chain of VDR:RXRa (P11473 whole entry, chain 1 of 2): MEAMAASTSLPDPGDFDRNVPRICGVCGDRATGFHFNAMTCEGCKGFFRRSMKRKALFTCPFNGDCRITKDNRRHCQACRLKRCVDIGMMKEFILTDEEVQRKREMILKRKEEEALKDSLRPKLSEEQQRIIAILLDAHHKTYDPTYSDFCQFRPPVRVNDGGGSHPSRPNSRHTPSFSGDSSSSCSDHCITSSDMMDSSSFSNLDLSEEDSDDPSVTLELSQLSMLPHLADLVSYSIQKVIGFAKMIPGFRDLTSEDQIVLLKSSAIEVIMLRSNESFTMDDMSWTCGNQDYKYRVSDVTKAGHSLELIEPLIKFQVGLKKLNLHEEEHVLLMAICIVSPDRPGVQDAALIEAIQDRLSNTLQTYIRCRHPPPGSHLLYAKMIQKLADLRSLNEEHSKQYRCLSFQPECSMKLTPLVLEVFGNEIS
Chain of VDR:RXRa (P19793 whole entry, chain 2 of 2): as the sequence (P19793 whole entry, chain 2 of 2) above
Summary of the method: as §1

[5] = molecular target: LXRb:RXRa (Homo sapiens, UniProt P55055;P19793 full;full); assay: as above; conditions: tags: His kept;His cleaved; copies: 1;1; label: surface-attached array probe
Chain of LXRb:RXRa (P55055 whole entry, chain 1 of 2): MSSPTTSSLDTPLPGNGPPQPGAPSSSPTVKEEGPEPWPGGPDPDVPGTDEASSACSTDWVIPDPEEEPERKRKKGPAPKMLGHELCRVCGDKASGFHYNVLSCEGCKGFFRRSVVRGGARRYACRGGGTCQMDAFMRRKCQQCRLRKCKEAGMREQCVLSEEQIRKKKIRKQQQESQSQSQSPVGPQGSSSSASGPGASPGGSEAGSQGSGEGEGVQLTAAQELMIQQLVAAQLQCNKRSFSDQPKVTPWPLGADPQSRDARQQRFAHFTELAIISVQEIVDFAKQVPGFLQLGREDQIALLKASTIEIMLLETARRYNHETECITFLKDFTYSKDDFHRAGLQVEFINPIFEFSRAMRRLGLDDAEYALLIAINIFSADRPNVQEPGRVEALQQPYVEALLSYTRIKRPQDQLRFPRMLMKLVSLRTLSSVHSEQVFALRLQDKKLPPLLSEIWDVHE
Chain of LXRb:RXRa (P19793 whole entry, chain 2 of 2): as the sequence (P19793 whole entry, chain 2 of 2) above
Summary of the method: as §1

[6] = molecular target: PPARa:RXRa (Homo sapiens, UniProt Q07869;P19793 full;full); assay: as above; conditions: tags: GST kept;His cleaved; copies: 1;1; label: surface-attached array probe
Chain of PPARa:RXRa (Q07869 whole entry, chain 1 of 2): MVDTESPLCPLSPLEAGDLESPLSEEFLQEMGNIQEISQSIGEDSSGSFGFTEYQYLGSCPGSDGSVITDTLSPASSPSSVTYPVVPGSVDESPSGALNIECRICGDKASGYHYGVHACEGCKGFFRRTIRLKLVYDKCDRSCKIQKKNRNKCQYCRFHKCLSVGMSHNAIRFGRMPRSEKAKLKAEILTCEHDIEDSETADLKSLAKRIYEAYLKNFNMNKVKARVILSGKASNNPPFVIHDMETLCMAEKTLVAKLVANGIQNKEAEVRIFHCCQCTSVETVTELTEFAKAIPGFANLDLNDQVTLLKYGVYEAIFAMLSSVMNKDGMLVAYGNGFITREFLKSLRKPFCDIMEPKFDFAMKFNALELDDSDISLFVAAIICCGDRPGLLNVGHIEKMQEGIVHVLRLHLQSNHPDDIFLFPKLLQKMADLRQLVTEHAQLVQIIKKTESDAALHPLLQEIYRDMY
Chain of PPARa:RXRa (P19793 whole entry, chain 2 of 2): as the sequence (P19793 whole entry, chain 2 of 2) above
Summary of the method: as §1

[7] = molecular target: FXR:RXRa (Homo sapiens, UniProt Q96RI1;P19793 full;full); assay: as above; conditions: tags: His kept;His cleaved; copies: 1;1; label: surface-attached array probe
Chain of FXR:RXRa (Q96RI1 whole entry, chain 1 of 2): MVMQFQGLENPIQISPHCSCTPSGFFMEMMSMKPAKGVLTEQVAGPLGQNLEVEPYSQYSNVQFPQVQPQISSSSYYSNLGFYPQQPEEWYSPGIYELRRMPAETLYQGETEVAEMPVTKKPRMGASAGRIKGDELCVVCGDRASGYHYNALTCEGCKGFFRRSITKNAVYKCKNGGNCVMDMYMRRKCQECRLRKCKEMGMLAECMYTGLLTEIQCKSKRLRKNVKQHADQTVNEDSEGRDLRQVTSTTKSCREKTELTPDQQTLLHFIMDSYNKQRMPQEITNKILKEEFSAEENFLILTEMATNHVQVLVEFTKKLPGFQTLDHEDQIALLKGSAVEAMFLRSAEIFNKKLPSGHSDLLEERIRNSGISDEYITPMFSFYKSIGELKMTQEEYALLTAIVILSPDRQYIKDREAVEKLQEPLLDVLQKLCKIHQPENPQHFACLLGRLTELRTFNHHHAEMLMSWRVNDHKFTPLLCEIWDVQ
Chain of FXR:RXRa (P19793 whole entry, chain 2 of 2): as the sequence (P19793 whole entry, chain 2 of 2) above
Summary of the method: as §1

[8] = molecular target: RARg:RXRa (Homo sapiens, UniProt P13631;P19793 full;full); assay: as above; conditions: tags: His kept;His cleaved; copies: 1;1; label: surface-attached array probe
Chain of RARg:RXRa (P13631 whole entry, chain 1 of 2): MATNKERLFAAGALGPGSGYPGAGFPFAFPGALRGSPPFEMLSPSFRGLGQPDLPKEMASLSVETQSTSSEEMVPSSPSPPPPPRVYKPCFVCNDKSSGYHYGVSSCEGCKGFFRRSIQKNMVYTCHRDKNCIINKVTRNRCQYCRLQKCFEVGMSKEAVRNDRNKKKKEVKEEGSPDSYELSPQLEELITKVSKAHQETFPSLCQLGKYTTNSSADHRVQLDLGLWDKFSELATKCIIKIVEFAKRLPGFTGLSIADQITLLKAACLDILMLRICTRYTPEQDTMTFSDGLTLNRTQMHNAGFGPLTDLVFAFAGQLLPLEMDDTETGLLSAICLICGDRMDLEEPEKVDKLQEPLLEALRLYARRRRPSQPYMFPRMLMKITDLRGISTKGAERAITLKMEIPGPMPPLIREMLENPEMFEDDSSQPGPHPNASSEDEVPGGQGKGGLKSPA
Chain of RARg:RXRa (P19793 whole entry, chain 2 of 2): as the sequence (P19793 whole entry, chain 2 of 2) above
Summary of the method: as §1

[9] = molecular target: LXRa:RXRa (Homo sapiens, UniProt Q13133;P19793 full;full); assay: as above; conditions: tags: His kept;His cleaved; copies: 1;1; label: surface-attached array probe
Chain of LXRa:RXRa (Q13133 whole entry, chain 1 of 2): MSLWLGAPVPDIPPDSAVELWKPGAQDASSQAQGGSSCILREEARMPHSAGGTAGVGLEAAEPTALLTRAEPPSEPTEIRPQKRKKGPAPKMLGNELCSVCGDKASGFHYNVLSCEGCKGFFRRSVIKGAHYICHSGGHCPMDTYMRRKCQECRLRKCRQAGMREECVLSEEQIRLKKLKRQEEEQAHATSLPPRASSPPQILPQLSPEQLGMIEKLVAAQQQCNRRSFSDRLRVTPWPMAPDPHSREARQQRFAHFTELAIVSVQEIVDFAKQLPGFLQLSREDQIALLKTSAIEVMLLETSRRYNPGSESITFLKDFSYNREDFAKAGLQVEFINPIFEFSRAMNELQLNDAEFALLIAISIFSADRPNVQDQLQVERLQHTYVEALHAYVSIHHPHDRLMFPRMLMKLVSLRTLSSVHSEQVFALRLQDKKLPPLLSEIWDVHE
Chain of LXRa:RXRa (P19793 whole entry, chain 2 of 2): as the sequence (P19793 whole entry, chain 2 of 2) above
Summary of the method: as §1

Chain of PPARg:RXRa (P37231 29-505, chain 1 of 2): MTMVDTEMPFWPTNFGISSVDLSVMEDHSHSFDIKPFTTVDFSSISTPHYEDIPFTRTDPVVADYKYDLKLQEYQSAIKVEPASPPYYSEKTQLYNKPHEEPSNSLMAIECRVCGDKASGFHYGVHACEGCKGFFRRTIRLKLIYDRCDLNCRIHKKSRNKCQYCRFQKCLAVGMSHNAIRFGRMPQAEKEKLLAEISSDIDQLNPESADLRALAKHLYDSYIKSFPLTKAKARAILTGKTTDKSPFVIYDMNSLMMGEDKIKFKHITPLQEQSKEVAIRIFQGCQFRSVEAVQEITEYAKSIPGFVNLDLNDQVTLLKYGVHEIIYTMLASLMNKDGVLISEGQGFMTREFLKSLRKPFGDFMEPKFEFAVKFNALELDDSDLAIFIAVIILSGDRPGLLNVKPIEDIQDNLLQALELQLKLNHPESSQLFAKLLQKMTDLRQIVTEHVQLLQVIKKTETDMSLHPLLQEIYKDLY
Chain of PPARg:RXRa (P19793 whole entry, chain 2 of 2): as the sequence (P19793 whole entry, chain 2 of 2) above

Binder | binding signal [1] | binding signal [3] | further results
NRC3_random_hg19_396_o1 (dsDNA) DNA 1: GCTTGTTGTGGTTGATGTTGTTCACTCTCAGTCTCCGCGATTGACAGCGTAGAATGAAGG DNA 2: CCTTCATTCTACGCTGTCAATCGCGGAGACTGAGAGTGAACAACATCAACCACAACAAGC | -0.98 PBM z-score against 500 random probes | – | binding signal [2]: 0.5 PBM z-score against 500 random probes
NRC3_random_hg19_399_o1 (dsDNA) DNA 1: GCATGAGATTTCACTGTGTTAGCCAGGATGGTCTCCGCGATTGACAGCGTAGAATGAAGG DNA 2: CCTTCATTCTACGCTGTCAATCGCGGAGACCATCCTGGCTAACACAGTGAAATCTCATGC | 0.22 PBM z-score against 500 random probes | -0.2 PBM z-score against 500 random probes | –
NRC3_random_hg19_293_o1 (dsDNA) DNA 1: GCGGAGAGGTCTTAGGATGCATTGGAGGCACAGTGTGCGATTGACAGCGTAGAATGAAGG DNA 2: CCTTCATTCTACGCTGTCAATCGCACACTGTGCCTCCAATGCATCCTAAGACCTCTCCGC | 0.47 PBM z-score against 500 random probes | – | binding signal [4]: 0.06 PBM z-score against 500 random probes
NRC3_wobSeed47_DR1_G20C_o1 (dsDNA) DNA 1: GCGGAACGAGGGCAAAGTTCATAGCATCTGTCGACGGCGATTGACAGCGTAGAATGAAGG DNA 2: CCTTCATTCTACGCTGTCAATCGCCGTCGACAGATGCTATGAACTTTGCCCTCGTTCCGC | 10.2 PBM z-score against 500 random probes | – | binding signal [5]: 3.56 PBM z-score against 500 random probes
NRC3_wobSeed47_DR1_G12T_o1 (dsDNA) DNA 1: GCGGAACGAGGTCAAAGTTGATAGCATCTGTCGACGGCGATTGACAGCGTAGAATGAAGG DNA 2: CCTTCATTCTACGCTGTCAATCGCCGTCGACAGATGCTATCAACTTTGACCTCGTTCCGC | 10.5 PBM z-score against 500 random probes | 8.54 PBM z-score against 500 random probes | binding signal [6]: 6.61 PBM z-score against 500 random probes; binding signal [7]: 8.06 PBM z-score against 500 random probes
NRC3_random_hg19_189_o1 (dsDNA) DNA 1: GCATCTGCCTTGCTCTTTCTACCTTTCAGTGTCTTTGCGATTGACAGCGTAGAATGAAGG DNA 2: CCTTCATTCTACGCTGTCAATCGCAAAGACACTGAAAGGTAGAAAGAGCAAGGCAGATGC | -1.57 PBM z-score against 500 random probes | -0.72 PBM z-score against 500 random probes | –
NRC3_wobSeed5_DR0_A14T_o1 (dsDNA) DNA 1: GCCCTTACGGGTCTAGGTTATAGCACGGGTGGTACGGCGATTGACAGCGTAGAATGAAGG DNA 2: CCTTCATTCTACGCTGTCAATCGCCGTACCACCCGTGCTATAACCTAGACCCGTAAGGGC | 0.3 PBM z-score against 500 random probes | 0.15 PBM z-score against 500 random probes | binding signal [8]: 0.05 PBM z-score against 500 random probes
NRC3_random_hg19_106_o1 (dsDNA) DNA 1: GCAAGGAATGTAATCTAACTCTGTATTCAAAGAAGAGCGATTGACAGCGTAGAATGAAGG DNA 2: CCTTCATTCTACGCTGTCAATCGCTCTTCTTTGAATACAGAGTTAGATTACATTCCTTGC | 0.5 PBM z-score against 500 random probes | – | binding signal [9]: -0.1 PBM z-score against 500 random probes
NRC3_wobSeed66_DR2_A8G_o1 (dsDNA) DNA 1: GCAATACGGGGTCACTAGGCCAGAGTAGGTACGAATGCGATTGACAGCGTAGAATGAAGG DNA 2: CCTTCATTCTACGCTGTCAATCGCATTCGTACCTACTCTGGCCTAGTGACCCCGTATTGC | 10.2 PBM z-score against 500 random probes | 8.8 PBM z-score against 500 random probes | binding signal [6]: 7.26 PBM z-score against 500 random probes; binding signal [5]: 6.54 PBM z-score against 500 random probes; binding signal [7]: 7.97 PBM z-score against 500 random probes
NRC3_random_hg19_207_o1 (dsDNA) DNA 1: GCGCAAAGGCTGCGGTGCAATCCTGCATTCTTGTTCGCGATTGACAGCGTAGAATGAAGG DNA 2: CCTTCATTCTACGCTGTCAATCGCGAACAAGAATGCAGGATTGCACCGCAGCCTTTGCGC | -0.83 PBM z-score against 500 random probes | – | binding signal [4]: -0.78 PBM z-score against 500 random probes; binding signal [7]: -0.69 PBM z-score against 500 random probes
NRC3_wobSeed69_DR2_C6A_o1 (dsDNA) DNA 1: GCAGTAAAAGTTCACTAGGTAACGTAAGATTCAGCTGCGATTGACAGCGTAGAATGAAGG DNA 2: CCTTCATTCTACGCTGTCAATCGCAGCTGAATCTTACGTTACCTAGTGAACTTTTACTGC | 5.13 PBM z-score against 500 random probes | – | binding signal [4]: 3.55 PBM z-score against 500 random probes
NRC3_wobSeed69_DR2_T11G_o1 (dsDNA) DNA 1: GCAGTCAAAGGTCACTAGGTAACGTAAGATTCAGCTGCGATTGACAGCGTAGAATGAAGG DNA 2: CCTTCATTCTACGCTGTCAATCGCAGCTGAATCTTACGTTACCTAGTGACCTTTGACTGC | 10.2 PBM z-score against 500 random probes | 7.84 PBM z-score against 500 random probes | binding signal [2]: 5.88 PBM z-score against 500 random probes; binding signal [8]: 7.59 PBM z-score against 500 random probes
NRC3_random_hg19_139_o1 (dsDNA) DNA 1: GCAGGATCGCTTGAGTCCAGAGTTTGAGACCAGCCTGCGATTGACAGCGTAGAATGAAGG DNA 2: CCTTCATTCTACGCTGTCAATCGCAGGCTGGTCTCAAACTCTGGACTCAAGCGATCCTGC | -0.51 PBM z-score against 500 random probes | -0.68 PBM z-score against 500 random probes | binding signal [6]: -1.12 PBM z-score against 500 random probes
NRC3_random_hg19_278_o1 (dsDNA) DNA 1: GCGCTACTTGGGAGGCTGAGATGGTAGAATCACTTGGCGATTGACAGCGTAGAATGAAGG DNA 2: CCTTCATTCTACGCTGTCAATCGCCAAGTGATTCTACCATCTCAGCCTCCCAAGTAGCGC | -0.02 PBM z-score against 500 random probes | -0.89 PBM z-score against 500 random probes | –
NRC3_random_hg19_479_o1 (dsDNA) DNA 1: GCAAGTAAACAGCCCTCTAGCTTGGGTGGAAATGTGGCGATTGACAGCGTAGAATGAAGG DNA 2: CCTTCATTCTACGCTGTCAATCGCCACATTTCCACCCAAGCTAGAGGGCTGTTTACTTGC | -0.63 PBM z-score against 500 random probes | – | binding signal [5]: -0.48 PBM z-score against 500 random probes
NRC3_random_hg19_123_o1 (dsDNA) DNA 1: GCGTGGAGAAAGTTCTGAGACTGAAGATGACTTTCCGCGATTGACAGCGTAGAATGAAGG DNA 2: CCTTCATTCTACGCTGTCAATCGCGGAAAGTCATCTTCAGTCTCAGAACTTTCTCCACGC | 0.25 PBM z-score against 500 random probes | – | binding signal [5]: 0.02 PBM z-score against 500 random probes
NRC3_wobSeed49_DR2_A17G_o1 (dsDNA) DNA 1: GCCAAACTAGGTCAAGGGGTCAAAGTCCGCTTCCCGGCGATTGACAGCGTAGAATGAAGG DNA 2: CCTTCATTCTACGCTGTCAATCGCCGGGAAGCGGACTTTGACCCCTTGACCTAGTTTGGC | 10.8 PBM z-score against 500 random probes | – | binding signal [4]: 6.63 PBM z-score against 500 random probes
NRC3_wobSeed46_DR1_C6A_o1 (dsDNA) DNA 1: GCTTAACAAGGTGAAAGGTCGTTGATGCACGCCTTGGCGATTGACAGCGTAGAATGAAGG DNA 2: CCTTCATTCTACGCTGTCAATCGCCAAGGCGTGCATCAACGACCTTTCACCTTGTTAAGC | 10.4 PBM z-score against 500 random probes | – | binding signal [4]: 3.31 PBM z-score against 500 random probes
NRC3_random_hg19_404_o1 (dsDNA) DNA 1: GCACTTCGTGATCTGCCTGCCTTAGCCTCCCAAAGTGCGATTGACAGCGTAGAATGAAGG DNA 2: CCTTCATTCTACGCTGTCAATCGCACTTTGGGAGGCTAAGGCAGGCAGATCACGAAGTGC | -1.16 PBM z-score against 500 random probes | – | binding signal [2]: -0.25 PBM z-score against 500 random probes
NRC3_random_hg19_68_o1 (dsDNA) DNA 1: GCAGCAGTGAGGACCAATGGGCAGTCCAGGAGGAAAGCGATTGACAGCGTAGAATGAAGG DNA 2: CCTTCATTCTACGCTGTCAATCGCTTTCCTCCTGGACTGCCCATTGGTCCTCACTGCTGC | -0.26 PBM z-score against 500 random probes | – | binding signal [9]: -0.72 PBM z-score against 500 random probes
NRC3_random_hg19_197_o1 (dsDNA) DNA 1: GCGCAACCTCTGCCTCTCAGGCTCAAGTGACCTTCCGCGATTGACAGCGTAGAATGAAGG DNA 2: CCTTCATTCTACGCTGTCAATCGCGGAAGGTCACTTGAGCCTGAGAGGCAGAGGTTGCGC | -0.35 PBM z-score against 500 random probes | – | binding signal [2]: 0.45 PBM z-score against 500 random probes; binding signal [8]: 0.42 PBM z-score against 500 random probes
